Measured values: article PMC8355051 (Nature biotechnology, 2021)

Tests used:
[1] = target: Biotinylated Spike RBD protein (SARS-CoV-2, UniProt P0DTC2, biotin); assay: BLI
[2] = target: Spike-RBD-15aa-LgBiT-12xHisTag (SARS-CoV-2, UniProt P0DTC2); assay: split reporter
[3] = target: Spike-RBD-25aa-SmBiT-12xHisTag (SARS-CoV-2, UniProt P0DTC2); assay: split reporter

Measured: binding result

B1: C105 IgG (antibody, V domains shown)
VH: QVQLVESGGGLIQPGGSLRLSCAASGFTVSSNYMSWVRQAPGKGLEWVSVIYSGGSTYYADSVKGRFTISRDNSKNTLYLQMNSLRAEDTAVYYCARGEGWELPYDYWGQGTLVTVSS
VL: QSALTQPPSASGSPGQSVTISCTGTSSDVGGYKYVSWYQQHPGKAPKLMIYEVSKRPSGVPDRFSGSKSGNTASLTVSGLQAEDEADYYCSSYEGSNNFVVFGGGTKLTVL
binds: all assays above
